Experiment [1] has as its system Male Sprague Dawley rats. Kind of experiment: Small intestine weight and histology after eleven-day subcutaneous dosing in rats. In kind it is in vivo. On the procedure: Dosing was as follows: Vehicle group dosed with saline daily; PE0503 Q1D dosed with PE0503 at 1.3 mg/kg once per day; PE0503 Q2D dosed with PE0503 at 5.1 mg/kg every other day; PE0503 Q4D dosed with PE0503 at 20.5 mg/kg once every four days; GLP-2(A2G) TID dosed […] with 0.1 mg/kg GLP2(A2G).
Male Sprague Dawley rats (200-220 g, n=12/group) were injected subcutaneously with PE0503 or GLP-2 (A2G) peptide over an eleven-day dosing period as shown in Table 5.
The animals were sacrificed on day 12 and a mid-line incision was made, the small intestines were removed, stretched to their maximum length and measured. The fecal material was then flushed from the lumen and the small intestine weight was recorded.

Experiment [2] has as its target T1, GLP-2 receptor (Homo sapiens, UniProt O95838).
T1 sequence (O95838 1-553): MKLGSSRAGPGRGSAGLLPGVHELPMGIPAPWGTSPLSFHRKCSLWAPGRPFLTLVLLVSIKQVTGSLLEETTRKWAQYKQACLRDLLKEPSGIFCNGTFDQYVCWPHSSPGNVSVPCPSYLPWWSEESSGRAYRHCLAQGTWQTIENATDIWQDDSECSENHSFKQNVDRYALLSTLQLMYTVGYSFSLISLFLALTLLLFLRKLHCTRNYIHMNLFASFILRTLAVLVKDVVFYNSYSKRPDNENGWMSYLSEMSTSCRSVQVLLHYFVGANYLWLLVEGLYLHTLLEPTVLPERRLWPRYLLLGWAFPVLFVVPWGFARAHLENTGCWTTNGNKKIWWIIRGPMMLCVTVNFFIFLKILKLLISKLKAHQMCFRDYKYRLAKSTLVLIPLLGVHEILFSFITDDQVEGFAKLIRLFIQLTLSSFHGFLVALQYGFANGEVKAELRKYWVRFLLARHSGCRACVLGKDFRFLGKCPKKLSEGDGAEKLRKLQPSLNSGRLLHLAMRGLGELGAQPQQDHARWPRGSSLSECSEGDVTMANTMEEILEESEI
Kind of experiment: Cell-based cAMP potency assay. To be noted: read-out: ECso.

The target in experiment [3] is GLP-2 receptor. Kind of experiment: cell-based or functional assay.
In experiment [4] the test system is normal mice (strain FVB/nj). Kind of experiment: Linear growth of normal mice, daily injection for three weeks. In kind it is in vivo. To be noted: injected daily for three weeks, mice 3 weeks of age, vs saline; FIG. 3A-C. As to the method:
Effect on growth was determined by measuring nose to tail length (A), nose to anus length (B), and tail length (C). The graphs show the mean change in growth versus baseline over the 3 week period.
The above constructs were injected daily in normal mice (strain FVB/nj) for three weeks. The mice were 3 weeks of age at the start of the experiment. The effect on linear growth of the mice was determined by measuring tail length, nose to anal length and nose to tail length after each week of dosing in comparison to a control group injected with normal saline. […] There was no significant effect on body weight.

B1: PE0503: GLP-2 sequence with A2G mutation on the N-terminus of the ELP1-120 sequence (protein)
chain: HGDGSFSDEMNTILDNLAARDFINWLIQTKITDVPGVGVPGVGVPGGGVPGAGVPGVGVPGVGVPGVGVPGGGVPGAGVPGGGVPGVGVPGVGVPGGGVPGAGVPGVGVPGVGVPGVGVPGGGVPGAGVPGGGVPGVGVPGVGVPGGGVPGAGVPGVGVPGVGVPGVGVPGGGVPGAGVPGGGVPGVGVPGVGVPGGGVPGAGVPGVGVPGVGVPGVGVPGGGVPGAGVPGGGVPGVGVPGVGVPGGGVPGAGVPGVGVPGVGVPGVGVPGGGVPGAGVPGGGVPGVGVPGVGVPGGGVPGAGVPGVGVPGVGVPGVGVPGGGVPGAGVPGGGVPGVGVPGVGVPGGGVPGAGVPGVGVPGVGVPGVGVPGGGVPGAGVPGGGVPGVGVPGVGVPGGGVPGAGVPGVGVPGVGVPGVGVPGGGVPGAGVPGGGVPGVGVPGVGVPGGGVPGAGVPGVGVPGVGVPGVGVPGGGVPGAGVPGGGVPGVGVPGVGVPGGGVPGAGVPGVGVPGVGVPGVGVPGGGVPGAGVPGGGVPGVGVPGVGVPGGGVPGAGVPGVGVPGVGVPGVGVPGGGVPGAGVPGGGVPGVGVPGVGVPGGGVPGAGVPGVGVPGVGVPGVGVPGGGVPGAGVPGGGVPGWP
modifications: pPE0503-GLP-2(A2G)-ELP1-120
As to B1, in experiment [1] (compared to placebo, day 12, even when dosed every fourth day (Q4D), FIG. 4), the small intestine weight entry is “highly significant increase”. The “villus height (histological analysis of sections of the small intestine)” value in experiment [1] (compared to vehicle (saline)) is “clear increase”. Moreover, in experiment [2], the EC50 was 1.75 nM.

In the case of HGDGSFSDEMNTILDNLAARDFINWLIQTKITD (ligand, part only; not given: ELP carrier, part only) [PE0503], the EC50, cell-based cAMP potency assay in experiment [3] stood at 1.75 nM.

B2: PE9306: CNP37 on N-terminus of ELP1-120 with Cathepsin K site 1 (Arg-Lys-Pro-Arg/Gly); SEQ ID NOs: 125 & 126 (protein)
chain: QEHPNARKYKGANKKGLSKGCFGLKLDRIGSMSGLGCRKPRGVPGVGVPGVGVPGGGVPGAGVPGVGVPGVGVPGVGVPGGGVPGAGVPGGGVPGVGVPGVGVPGGGVPGAGVPGVGVPGVGVPGVGVPGGGVPGAGVPGGGVPGVGVPGVGVPGGGVPGAGVPGVGVPGVGVPGVGVPGGGVPGAGVPGGGVPGVGVPGVGVPGGGVPGAGVPGVGVPGVGVPGVGVPGGGVPGAGVPGGGVPGVGVPGVGVPGGGVPGAGVPGVGVPGVGVPGVGVPGGGVPGAGVPGGGVPGVGVPGVGVPGGGVPGAGVPGVGVPGVGVPGVGVPGGGVPGAGVPGGGVPGVGVPGVGVPGGGVPGAGVPGVGVPGVGVPGVGVPGGGVPGAGVPGGGVPGVGVPGVGVPGGGVPGAGVPGVGVPGVGVPGVGVPGGGVPGAGVPGGGVPGVGVPGVGVPGGGVPGAGVPGVGVPGVGVPGVGVPGGGVPGAGVPGGGVPGVGVPGVGVPGGGVPGAGVPGVGVPGVGVPGVGVPGGGVPGAGVPGGGVPGVGVPGVGVPGGGVPGAGVPGVGVPGVGVPGVGVPGGGVPGAGVPGGGVPGVGVPGVGVPGGGVPGAGVPGVGVPGVGVPGVGVPGGGVPGAGVPGGGVPGWP
modifications: CNP37 CatK ELP1-120 fusion PE9306
B2: in experiment [4], the “rate of linear growth (tail length, nose to anal length, nose to tail length)” value is on record as “faster rate of linear growth”.

The record behind these values is patent publication US20240294608A1, “ELP FUSION PROTEINS FOR CONTROLLED AND SUSTAINED RELEASE” (ImmunoForge Co., LTD., priority 2016, published 2024).
